Results published in IntAct's records for PubMed 20676133.

B1: RING finger protein 11 (Homo sapiens), Q9Y3C5 (parent)
chain: MGNCLKSPTSDDISLLHESQSDRASFGEGTEPDQEPPPPYQEQVPVPVYHPTPSQTRLATQLTEEEQIRIAQRIGLIQHLPKGVYDPGRDGSEKKIRECVICMMDFVYGDPIRFLPCMHIYHLDCIDDWLMRSFTCPSCMEPVDAALLSSYETN

Variants of: B1
Details: with itch_human ITCH

Variant	effect of a mutation on the interaction
MGNCLKSPTSDDISLLHESQSDRASFGEGTEPDQEPPPPAQEQVPVPVYHPTPSQTRLATQLTEEEQIRIAQRIGLIQHLPKGVYDPGRDGSEKKIRECVICMMDFVYGDPIRFLPCMHIYHLDCIDDWLMRSFTCPSCMEPVDAALLSSYETN [Y40A]	disrupting interaction

Variants of: B1
Details: with nedd4_human NEDD4, P46934
nedd4_human NEDD4, P46934, sequence (P46934 whole entry): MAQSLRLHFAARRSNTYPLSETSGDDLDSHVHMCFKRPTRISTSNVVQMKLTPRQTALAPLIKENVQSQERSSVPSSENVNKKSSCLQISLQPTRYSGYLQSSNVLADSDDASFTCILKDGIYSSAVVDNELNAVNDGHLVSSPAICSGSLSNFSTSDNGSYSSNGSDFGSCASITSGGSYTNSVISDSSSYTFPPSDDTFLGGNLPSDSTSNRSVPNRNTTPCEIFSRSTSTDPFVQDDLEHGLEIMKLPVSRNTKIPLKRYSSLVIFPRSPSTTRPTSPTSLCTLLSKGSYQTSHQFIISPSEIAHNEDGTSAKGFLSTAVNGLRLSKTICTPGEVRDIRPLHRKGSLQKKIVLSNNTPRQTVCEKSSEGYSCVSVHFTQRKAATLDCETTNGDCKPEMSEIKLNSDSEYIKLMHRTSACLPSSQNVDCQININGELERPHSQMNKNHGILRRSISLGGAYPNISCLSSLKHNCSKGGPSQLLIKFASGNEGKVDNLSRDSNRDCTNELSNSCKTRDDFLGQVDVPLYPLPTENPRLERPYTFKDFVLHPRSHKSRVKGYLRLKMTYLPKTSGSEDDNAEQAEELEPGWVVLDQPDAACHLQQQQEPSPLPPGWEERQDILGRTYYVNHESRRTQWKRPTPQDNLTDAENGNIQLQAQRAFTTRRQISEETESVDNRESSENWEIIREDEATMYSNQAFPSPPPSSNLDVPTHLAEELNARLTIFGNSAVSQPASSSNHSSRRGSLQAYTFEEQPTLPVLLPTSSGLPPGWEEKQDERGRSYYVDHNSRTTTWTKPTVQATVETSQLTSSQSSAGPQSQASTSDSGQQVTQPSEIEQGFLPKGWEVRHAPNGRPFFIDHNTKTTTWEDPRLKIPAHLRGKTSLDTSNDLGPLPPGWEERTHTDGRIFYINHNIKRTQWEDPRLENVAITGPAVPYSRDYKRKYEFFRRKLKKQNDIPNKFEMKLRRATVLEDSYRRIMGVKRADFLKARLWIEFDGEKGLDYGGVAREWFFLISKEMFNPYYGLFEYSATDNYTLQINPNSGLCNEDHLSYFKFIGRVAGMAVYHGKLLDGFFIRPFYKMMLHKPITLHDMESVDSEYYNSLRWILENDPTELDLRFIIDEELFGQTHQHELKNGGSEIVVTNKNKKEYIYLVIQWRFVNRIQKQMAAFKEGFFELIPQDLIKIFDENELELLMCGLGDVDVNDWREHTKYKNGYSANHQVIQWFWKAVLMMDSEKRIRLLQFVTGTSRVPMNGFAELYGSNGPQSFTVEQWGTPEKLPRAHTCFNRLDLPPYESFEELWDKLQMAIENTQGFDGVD

Variant	effect of a mutation on the interaction
MGNCLKSPTSDDISLLHESQSDRASFGEGTEPDQEPPPPAQEQVPVPVYHPTPSQTRLATQLTEEEQIRIAQRIGLIQHLPKGVYDPGRDGSEKKIRECVICMMDFVYGDPIRFLPCMHIYHLDCIDDWLMRSFTCPSCMEPVDAALLSSYETN [Y40A]	disrupting interaction

Variants of: B1
Details: with smuf2_human SMURF2, Q9HAU4
smuf2_human SMURF2, Q9HAU4, sequence (Q9HAU4 whole entry): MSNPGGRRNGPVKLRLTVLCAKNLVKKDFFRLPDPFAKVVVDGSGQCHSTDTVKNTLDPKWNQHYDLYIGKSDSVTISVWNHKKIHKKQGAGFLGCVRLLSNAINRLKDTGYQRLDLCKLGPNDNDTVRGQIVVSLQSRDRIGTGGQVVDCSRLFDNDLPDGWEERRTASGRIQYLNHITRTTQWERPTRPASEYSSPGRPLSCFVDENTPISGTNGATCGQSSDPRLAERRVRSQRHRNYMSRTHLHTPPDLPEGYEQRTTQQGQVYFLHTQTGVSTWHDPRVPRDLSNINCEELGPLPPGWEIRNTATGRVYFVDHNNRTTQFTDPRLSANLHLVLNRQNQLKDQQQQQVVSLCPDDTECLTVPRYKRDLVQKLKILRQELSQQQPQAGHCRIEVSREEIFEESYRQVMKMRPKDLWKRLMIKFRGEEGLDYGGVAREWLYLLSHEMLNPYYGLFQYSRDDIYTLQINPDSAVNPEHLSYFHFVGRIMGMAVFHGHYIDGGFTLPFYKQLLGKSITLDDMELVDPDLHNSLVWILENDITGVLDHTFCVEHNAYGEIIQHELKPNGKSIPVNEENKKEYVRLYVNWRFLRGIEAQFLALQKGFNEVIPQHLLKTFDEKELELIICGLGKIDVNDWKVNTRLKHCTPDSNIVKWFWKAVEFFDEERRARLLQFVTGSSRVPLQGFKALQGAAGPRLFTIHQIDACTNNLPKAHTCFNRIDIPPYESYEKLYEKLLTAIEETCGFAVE

Variant	effect of a mutation on the interaction
MGNCLKSPTSDDISLLHESQSDRASFGEGTEPDQEPPPPAQEQVPVPVYHPTPSQTRLATQLTEEEQIRIAQRIGLIQHLPKGVYDPGRDGSEKKIRECVICMMDFVYGDPIRFLPCMHIYHLDCIDDWLMRSFTCPSCMEPVDAALLSSYETN [Y40A]	disrupting interaction
